In patent publication US20160058880A1 (LIFE SCIENCES RESEARCH PARTNERS VZW, published 2016):
Numbered stars: 1 amine (or outer) side, 2 acyl side, 3 side chain; on linkers, the order of the positions; unused ones are H or OH. Square brackets hold non-standard residues; d marks the D form. * marks the point of attachment. Doxorubicin(3'-N) = COc1cccc2c1C(=O)c1c(O)c3c(c(O)c1C2=O)C[C@@](O)(C(=O)CO)C[C@@H]3O[C@H]1C[C@H](N*)[C@H](O)[C@H](C)O1; Phosphonoacetyl = O=C(CP(=O)(O)O)*; Suc = O=C(CCC(=O)[*:2])[*:1]; βAla = NCCC(=O)O

Experiments:
[1] = molecular target: TOP (recombinant human thimet oligopeptidase, R&D systems, Ref 3439-ZN) (human, UniProt P52888 1-689, limits assumed); assay: cell-based or functional assay
[2] = molecular target: CD10 (recombinant human neprilysin, R&D systems, Ref 1182-ZN) (human, UniProt P08473 53-750); assay: cell-based or functional assay
Sequence of CD10 (recombinant human neprilysin, R&D systems, Ref 1182-ZN) (P08473 53-750 limits assumed): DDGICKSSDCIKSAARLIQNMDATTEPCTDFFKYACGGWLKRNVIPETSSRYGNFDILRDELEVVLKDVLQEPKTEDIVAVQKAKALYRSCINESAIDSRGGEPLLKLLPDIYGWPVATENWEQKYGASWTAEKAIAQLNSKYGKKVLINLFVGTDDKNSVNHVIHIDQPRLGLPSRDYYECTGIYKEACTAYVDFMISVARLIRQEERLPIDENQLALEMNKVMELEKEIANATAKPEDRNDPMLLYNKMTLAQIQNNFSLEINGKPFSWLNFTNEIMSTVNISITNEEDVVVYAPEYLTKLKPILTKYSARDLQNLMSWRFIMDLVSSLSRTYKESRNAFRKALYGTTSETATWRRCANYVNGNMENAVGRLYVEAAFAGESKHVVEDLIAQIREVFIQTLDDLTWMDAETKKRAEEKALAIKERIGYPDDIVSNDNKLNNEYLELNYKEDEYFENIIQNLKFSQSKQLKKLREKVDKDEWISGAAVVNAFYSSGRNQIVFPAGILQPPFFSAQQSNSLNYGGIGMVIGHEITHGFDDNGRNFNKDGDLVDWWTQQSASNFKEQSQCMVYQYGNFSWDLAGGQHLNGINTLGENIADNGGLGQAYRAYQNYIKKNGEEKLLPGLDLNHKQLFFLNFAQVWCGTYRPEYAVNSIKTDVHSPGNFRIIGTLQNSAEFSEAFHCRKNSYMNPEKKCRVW

Sequence of TOP (recombinant human thimet oligopeptidase, R&D systems, Ref 3439-ZN) (P52888 whole entry): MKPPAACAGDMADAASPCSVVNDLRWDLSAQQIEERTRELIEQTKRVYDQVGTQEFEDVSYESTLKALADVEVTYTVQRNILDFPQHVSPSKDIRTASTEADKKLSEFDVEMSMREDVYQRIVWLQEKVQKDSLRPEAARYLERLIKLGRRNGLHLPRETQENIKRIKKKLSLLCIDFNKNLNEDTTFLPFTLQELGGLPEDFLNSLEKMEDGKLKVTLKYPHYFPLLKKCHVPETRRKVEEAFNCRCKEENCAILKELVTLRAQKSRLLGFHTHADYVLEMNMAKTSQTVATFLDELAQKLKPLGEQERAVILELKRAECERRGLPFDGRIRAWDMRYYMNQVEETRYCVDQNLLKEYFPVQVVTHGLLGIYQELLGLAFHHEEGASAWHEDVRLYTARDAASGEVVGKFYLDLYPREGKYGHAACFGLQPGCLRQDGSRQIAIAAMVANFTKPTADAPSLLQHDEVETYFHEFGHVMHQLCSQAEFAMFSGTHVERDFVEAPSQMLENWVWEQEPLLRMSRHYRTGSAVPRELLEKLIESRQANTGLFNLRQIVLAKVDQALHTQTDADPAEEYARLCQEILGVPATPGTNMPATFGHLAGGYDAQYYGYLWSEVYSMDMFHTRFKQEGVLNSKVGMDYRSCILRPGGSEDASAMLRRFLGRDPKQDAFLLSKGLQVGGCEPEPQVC

Binder: Suc-[βAla]LPF-doxorubicin [Succinyl-βALPF-doxorubicin]
- % Metabolites released after 3 h with TOP 5 nM [1]: 0%

B1: PhAc-DLGP-doxorubicin (peptide)
peptide: Phosphonoacetyl-DLGP-{Doxorubicin(3'-N)}
SMILES: COc1cccc2c1C(=O)c1c(O)c3c(c(O)c1C2=O)C[C@@](O)(C(=O)CO)C[C@@H]3O[C@H]1C[C@H](NC(=O)[C@@H]2CCCN2C(=O)CNC(=O)[C@H](CC(C)C)NC(=O)[C@H](CC(=O)O)NC(=O)CP(=O)(O)O)[C@H](O)[C@H](C)O1
- % Metabolites released after 3 h with TOP 5 nM [1]: 0%
- % Metabolites released after 3 h with CD10 10 nM [2]: 0%

B2: PhAc-KLGP-doxorubicin (peptide)
peptide: Phosphonoacetyl-KLGP-{Doxorubicin(3'-N)}
SMILES: COc1cccc2c1C(=O)c1c(O)c3c(c(O)c1C2=O)C[C@@](O)(C(=O)CO)C[C@@H]3O[C@H]1C[C@H](NC(=O)[C@@H]2CCCN2C(=O)CNC(=O)[C@H](CC(C)C)NC(=O)[C@H](CCCCN)NC(=O)CP(=O)(O)O)[C@H](O)[C@H](C)O1
- % Metabolites released after 3 h with TOP 5 nM (GP-Dox) [1]: 31%

B3: PhAc-GPGP-doxorubicin (peptide)
peptide: Phosphonoacetyl-GPGP-{Doxorubicin(3'-N)}
SMILES: COc1cccc2c1C(=O)c1c(O)c3c(c(O)c1C2=O)C[C@@](O)(C(=O)CO)C[C@@H]3O[C@H]1C[C@H](NC(=O)[C@@H]2CCCN2C(=O)CNC(=O)[C@@H]2CCCN2C(=O)CNC(=O)CP(=O)(O)O)[C@H](O)[C@H](C)O1
- % Metabolites released after 3 h with TOP 5 nM [1]: 0%
- % Metabolites released after 3 h with CD10 10 nM [2]: 0%

B4: PhAc-AIGP-doxorubicin (peptide)
peptide: Phosphonoacetyl-AIGP-{Doxorubicin(3'-N)}
SMILES: CC[C@H](C)[C@H](NC(=O)[C@H](C)NC(=O)CP(=O)(O)O)C(=O)NCC(=O)N1CCC[C@H]1C(=O)N[C@H]1C[C@H](O[C@H]2C[C@](O)(C(=O)CO)Cc3c(O)c4c(c(O)c32)C(=O)c2c(OC)cccc2C4=O)O[C@@H](C)[C@H]1O
- % Metabolites released after 3 h with TOP 5 nM (GP-Dox) [1]: < 5%

B5: PhAc-ALGP-doxorubicin (peptide)
peptide: Phosphonoacetyl-ALGP-{Doxorubicin(3'-N)}
SMILES: COc1cccc2c1C(=O)c1c(O)c3c(c(O)c1C2=O)C[C@@](O)(C(=O)CO)C[C@@H]3O[C@H]1C[C@H](NC(=O)[C@@H]2CCCN2C(=O)CNC(=O)[C@H](CC(C)C)NC(=O)[C@H](C)NC(=O)CP(=O)(O)O)[C@H](O)[C@H](C)O1
- % Metabolites released after 3 h with TOP 5 nM (GP-Dox) [1]: 72%

B6: PhAc-TSGP-doxorubicin (peptide)
peptide: Phosphonoacetyl-TSGP-{Doxorubicin(3'-N)}
SMILES: COc1cccc2c1C(=O)c1c(O)c3c(c(O)c1C2=O)C[C@@](O)(C(=O)CO)C[C@@H]3O[C@H]1C[C@H](NC(=O)[C@@H]2CCCN2C(=O)CNC(=O)[C@H](CO)NC(=O)[C@@H](NC(=O)CP(=O)(O)O)[C@@H](C)O)[C@H](O)[C@H](C)O1
- % Metabolites released after 3 h with TOP 5 nM (GP-Dox) [1]: 38%
- % Metabolites released after 3 h with CD10 10 nM [2]: 0%

B7: PhAc-ALPF-doxorubicin (peptide)
peptide: Phosphonoacetyl-ALPF-{Doxorubicin(3'-N)}
SMILES: COc1cccc2c1C(=O)c1c(O)c3c(c(O)c1C2=O)C[C@@](O)(C(=O)CO)C[C@@H]3O[C@H]1C[C@H](NC(=O)[C@H](Cc2ccccc2)NC(=O)[C@@H]2CCCN2C(=O)[C@H](CC(C)C)NC(=O)[C@H](C)NC(=O)CP(=O)(O)O)[C@H](O)[C@H](C)O1
- % Metabolites released after 3 h with CD10 10 nM [2]: 0%
